Laboratory results reported in patent US20210079423.

Tests used:
[1] = system: PR405: SP(HSA)-PTEN-L-MMP2/9-HSA-6xHis (secreted form)
[2] = system: PR408: SP(HSA)-PTEN-L-cathepsinB**-HSA-6xHis (secreted form)
[3] = system: PR407: SP(HSA)-PTEN-L-cathepsin B*-HSA-6xHis (secreted form)
[4] = system: PR406: SP(HSA)-PTEN-L-cathepsin B-HSA-6xHis (secreted form)
[5] = system: PR402: SP(HSA)-PTEN-L-HSA-6xHis (secreted, mature form)

recombinant active MMP2 protease (Enzo cat. #BML-SE237-0010), sequence (chain, as listed by the source): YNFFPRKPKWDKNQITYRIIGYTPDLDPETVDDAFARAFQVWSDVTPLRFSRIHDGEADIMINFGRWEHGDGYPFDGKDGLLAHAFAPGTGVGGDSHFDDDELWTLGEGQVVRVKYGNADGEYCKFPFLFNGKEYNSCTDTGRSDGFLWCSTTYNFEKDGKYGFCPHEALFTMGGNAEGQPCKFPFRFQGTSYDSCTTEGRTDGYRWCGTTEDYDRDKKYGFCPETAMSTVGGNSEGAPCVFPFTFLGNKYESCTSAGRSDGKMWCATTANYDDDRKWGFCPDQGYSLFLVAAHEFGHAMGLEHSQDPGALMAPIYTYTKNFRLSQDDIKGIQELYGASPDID

## active CATSB (Cathepsin B; BioVision #7580-5)
[1]
  in vitro cleavage of the fusion: PR405 (SEQ ID NO:129; cDNA SEQ ID NO:157) was not cleaved by CATSB
[2]
  pH dependence of in vitro cleavage (pH 5.0 against pH 7.0 buffer): CATSB only cleaves PR407 and PR408 at a low pH (FIG. 15)
[3]
  pH dependence of in vitro cleavage (pH 5.0 against pH 7.0 buffer): CATSB only cleaves PR407 and PR408 at a low pH (FIG. 15)
[4]
  in vitro cleavage of the fusion: though it did not cleave PR406 (SEQ ID NO:130; cDNA SEQ ID NO:158)
[5]
  in vitro cleavage of the fusion (F-1 anti-PTEN western blot of digests at t=0, 4 h, 21 h): PR402 was not appreciably cleaved by either recombinant MMP2 or CATSB

## recombinant active MMP2 protease (Enzo cat. #BML-SE237-0010)
[1]
  in vitro cleavage of the fusion, release of a PTEN-L-like fragment (~70 KDa): MMP2 did however cleave its consensus site (SEQ ID NO:165) on PR405 only; this cleavage released a PTEN-L-like fragment (~70 KDa)
[2]
  in vitro cleavage of the fusion: MMP2 did however cleave its consensus site (SEQ ID NO:165) on PR405 only
[3]
  in vitro cleavage of the fusion: MMP2 did however cleave its consensus site (SEQ ID NO:165) on PR405 only
[4]
  in vitro cleavage of the fusion: MMP2 did however cleave its consensus site (SEQ ID NO:165) on PR405 only
[5]
  in vitro cleavage of the fusion (F-1 anti-PTEN western blot of digests at t=0, 4 h, 21 h): PR402 was not appreciably cleaved by either recombinant MMP2 or CATSB
